Drawing on US20240218064A1 (AstraZeneca / MedImmune, published 2024), this text covers Kd and IC50 for 2 molecules.

Assay [1] concerns the target T1, human LOX-1 (lectin-like oxidized low density lipoprotein receptor-1) (human, UniProt P78380 61-273). Nature of the assay: BIAcore (SPR); Fab, not full mAb; LOX-1. Background: Surface plasmon resonance follows binding to a sensor surface in real time, without labels.
Another assay has as its target cynomolgus monkey LOX-1 (cynomolgus monkey, UniProt A0A2K5VQ73 79-291). Kind of assay: BIAcore (SPR).
Assay [2] concerns the target T1, human LOX-1 (lectin-like oxidized low …). Nature of the assay: in vitro inhibition of ligand binding to human LOX-1; competitor ligand CRP; ligand CRP. From the text: (§1) FIG. 3. MEDI6570 inhibition of ligand binding. AGE-BSA=advanced glycation end products-bovine serum albumin; CRP=c-reactive protein; IgG-immunoglobulin G; OxLDL=oxidized low-density lipoprotein. Antibodies were titrated across a 384 well dilution plate in assay buffer (PBS/0.1% BSA/0.01% Tween 20) over 24 points in duplicate.
(§2) The ability of MEDI6570 to inhibit binding of the LOX-1 ligands oxLDL, AGE (advanced glycation end products, in this case glycated bovine serum albumin, BSA) and CRP was determined using in vitro assays. AGEs are known ligands of LOX-1. They commonly occur in patients that have poorly regulated levels of blood glucose, which is a risk factor for cardiovascular disease.

Assay [3] has as its target T2, soluble LOX-1 (sLOX-1) in sera of participants with T2DM (human, UniProt P78380 89-273, limits assumed).
T2 construct: domain: cleaved soluble domain of LOX-1; Endogenous protein in patient serum; also called soluble lectin-like oxidized low-density lipoprotein receptor 1
Kind of assay: sLOX-1 in sera of participants with T2DM; the paragraph names BIAcore, the method for this value is not made clear; full mAb; sLOX-1 in sera of participants with T2DM.

For assay [4], the target named is T1, human LOX-1 (lectin-like oxidized low …). Kind of assay: in vitro inhibition of ligand binding to human LOX-1; competitor ligand AGE-BSA; ligand AGE-BSA.
From the text: as §1, §2

Assay [5] has the same target. Kind of assay: in vitro inhibition of ligand binding to human LOX-1; competitor ligand oxLDL; ligand oxLDL.
From the text: as §1, §2

B1: MEDI6570 Fab (Fab, V domains shown)
VH: QVQLVQSGAEVKKPGASVKVSCKVSGYTLTELSMHWVRQAPGKGLEWMGGFDPEDFKYHTHQKFQGRVTMTEDTSTDTAYMELSSLRSEDTAVYYCALVWGTQGKGVRGWDYYYGMDVWGQGTTVTVSS
VL: QSVVTQPPSVSGAPGQRVTISCTGSSSNIGAGYDVHWYQQLPGTAPKLLIYGNSNRPSGVPDRFSGSKSGTSASLAITGLQAEDEADYYCQSYDSSLSGWVFGGGTKLTVL
notes: also called Fab of the antibody MEDI6570
Consider B1, for which the Kd (in general, the constant that tells how readily two partners part at equilibrium) was 0.056 nM in assay [1] and 0.116 nM with cynomolgus monkey LOX-1.

B2: MEDI6570 (antibody, human IgG1, lambda, V domains shown)
VH: B1 VH
VL: QSVVTQPPSVSGAPGQRVTISCTGSSSNIGAGYDVHWYQQLPGTAPKLLIYGNSNRPSGVPDRFSGSKSGTSASLAITGLQAEDEADYYCQSYDSSLSGWVFGGGTKLTVLG
notes: Fully human IgG1-lambda; also called LX5140110-IgG1-TM
B2: the IC50 (in general, the concentration needed to halve the response being measured) in assay [2] worked out at 4.8 nM; in assay [4] it was 0.54 nM; in assay [5], 0.34 nM. In addition, in assay [3], the Kd is ~0.173 nM.
